According to patent publication US20170334973A1 (INTEGRATED BIOTHERAPEUTICS, published 2017):
Changes are numbered by the printed parent chain.

B1: FVM03 (antibody, V domains shown)
VH: QVQLQESGPVLVKPSETLSLTCAVSGYSISSAYAWSWIRQPPGKGLEWVGYVGSSSDYNPSLKSRVTISRDTSKNRIFLNLRSLTAADTAVYYCARDRANNSMDVWGRGVLVTVSS
VL: EIVLTQSPDSLGVSLGERVTINCKSSQSLLYSSNNKNYLAWYQQKPGQAPKLLIYWASTRESGVPNRFSGSGSGTDFTLTISGLQAEDVAVYYCQQYYSTPLTFGQGTKVEIKR
B2: FVM25 (antibody, V domains shown)
VH: EVQLVHSGAEVKRPGESLTISCKTSGYTFTDYWIAWVRQMPGKGLEWMASIYPDDSDTRYNPSFQGHVTISADKSISTTYLQWSSLRASDTATYYCVKGSETWGQGVLVTVSS
VL: QLVLTQPASLSASPGTSASLTCTFSGGINVAGYNILWYQQKPGSPPRFLLRYKSDSDNVQGSGVPSHFSGSKDASTNTGILRISGLQSEDEADYYCAIGHSSGWVFGGGTRLTVL
B3: FVM28 (antibody, V domains shown)
VH: EVQLVQSGAEVKRPGESLKISCQTSGYRFTSSWISWVRQMPGKGLEWMGAIDPSDSETRYSPSFQGQVTISADKSISTAYLKWSSLKASDTATYYCVKGSETWGQGVLVTVSS
VL: QAALTQPASLSASPGASASLTCTFSGGINVAGYHILWYQQKPGSPPRYLLRYKSDSEKDQGSGVPSRFSGSKDASANRGILRISGLQSEDEADYYCAIGHSSSGWVFGGGTRLTVL
B4: FVM19 (antibody, V domains shown)
VH: QVQLVQSGAEVKRPGESLTISCKTSGYSFTDSWVAWVRQMPGKGLEWLGSIYPGDSDTKYNPSFQGHVTISADKSVTTTYLKWSSLKASDTATYYCVKGSETWGQGVLVTVSS
VL: KPMLTQPASLSASPGASASLTCTFSGGINVAGYHIFWYQQKPGSPPRYLLRYKSDSDKGQGSGVPSRFSGSKDASANTGILRISGLQSEDEADYYCAIGHSSGLLFGGGTRLTVL
B5: FVM21 (antibody, V domains shown)
VH: EVQLVESGAEVKRPGESLTISCKTSGYSFTDSWVAWVRQMPGKGLEWLGSIYPGDSETKYNPSFQGHVTISADKSISTTYLQWSSLRASDTATYYCVKGADDWGPGLLVTVSS
VL: B4 VL with K1S, P2S, M3E, H34N, F36L, P42A, L104W, L105I
B6: FVM32 (antibody, V domains shown)
VH: B4 VH with T19R, K59R, N61S, H67Q, V76I, T79A
VL: QPVLTQPASLSASPGASASLTCTFNGGITVPGYDILWYQQKSGSPPRYLLRYKSDSTKDQGSGVPSRFSGSKDASTNTGILRISGLQSEDEADYYCAIGHSSGWIFGGGTRLTVL
B7: FVM23 (antibody, V domains shown)
VH: B4 VH with D31G, V34I, A35S, L48M, K59T, V76I, T77S, T79A, K82Q, S84T
VL: B4 VL with K1S, P2Y, M3E, H34N, F36L, P42A, D57T, G59D, L105I, G108A
B8: FVM24 (antibody, V domains shown)
VH: EVQLVQSGAEVKRPGESLKISCKTSGYSFTDSWVAWVRQMPGKGLEWMGSIYPGDFQTRYNPSFQGHVTLSADKSISTTYLQWSSLKASDTATYYCVKGSETWGPGVLVTVSS
VL: SSGLTQPASLSASPGASASLTCTFSGGINVAGYNILWYQQKAGSPPRYLLRYKSDSTKDQGSGVPSRFSGSKDVSANTGILRISGLQSDDEADYYCAIGHSSGWIFGGGTRLTVL
B9: FVM02P (antibody, V domains shown)
VH: EVQLVESGGGLVQPGGSLRLSCAASGFTGFTFSDYAFYWVRQAPGKGLEWVGFIRGKAYGGTADYAASVKGRFTISRDNSKNTAYLQMSSLKTEDSAVYYCTSQGVTVATPYHWGQGVLVTVSS
VL: DIVLTQSPLSLPVTPGEPASISCRSSQSLLHSGGKTYLYWYLQKPGQSPQLLIHEVSNRASGVPDRFSGSGSGTDFTLKISRVEAEDVGVYYCMQGIQLPLTFGGGTKVEIKR

target: T1, EBOV GPddmuc (Ebola virus (EBOV), UniProt Q05320 33-650); test: native ELISA

Binder | binding result
B1 | no binding

target: T2, MARV GPddmuc (Marburg virus (MARV), UniProt P35253 19-648); test: native ELISA

Binder | binding result
B2 | no binding
B3 | no binding
B4 | no binding
B5 | no binding
B6 | no binding
B7 | no binding
B8 | no binding

target: T3, SUDV GPddmuc (Sudan virus (SUDV), UniProt Q66814 33-650); test: native ELISA

Binder | binding result
B1 | no binding

target: T1, EBOV GPddmuc; test: ELISA

Binder | EC50
B2 | 0.12 nM
B3 | 0.047 nM
B4 | 0.12 nM
B5 | 0.067 nM
B6 | 0.073 nM
B7 | 0.087 nM
B8 | 0.153 nM
B9 | 0.127 nM

target: T2, MARV GPddmuc; test: ELISA

Binder | EC50
B9 | > 10 nM
B1 | 0.306 nM

target: T3, SUDV GPddmuc; test: ELISA

Binder | EC50
B2 | 0.18 nM
B3 | 0.047 nM
B4 | 0.267 nM
B5 | 0.067 nM
B6 | 0.127 nM
B7 | 0.08 nM
B8 | 0.12 nM
B9 | 0.158 nM
